Assay [1] addresses T1, murine CD40 overexpressed on CHO-K1 cells (CHOK1/CD40) (murine, UniProt P27512 20-289).
T1 construct: whole, on cells; also called mCD40
T1 sequence (looked up): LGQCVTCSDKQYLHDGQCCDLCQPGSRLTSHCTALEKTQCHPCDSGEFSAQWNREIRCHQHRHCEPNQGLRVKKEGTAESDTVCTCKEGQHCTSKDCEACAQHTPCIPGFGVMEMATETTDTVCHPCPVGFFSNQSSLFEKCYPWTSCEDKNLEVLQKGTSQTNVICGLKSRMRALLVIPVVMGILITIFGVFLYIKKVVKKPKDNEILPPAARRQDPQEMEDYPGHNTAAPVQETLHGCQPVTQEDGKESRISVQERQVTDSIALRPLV
The assay is described as follows: flow cytometry on CHOK1/CD40 cells; CHOK1/CD40 cells, flow cytometry. The protocol:
For cell binding assays, immortalized cell lines were engineered to stably express CD40 (CHOK1/CD40). Increasing concentrations of the murine CSF1R-Fc-CD40L chimeric protein were incubated with the over-expressing (CHOK1/CD40) cell line for 2 hours. Cells were collected, washed, and stained with antibodies for the detection of chimeric protein binding by flow cytometry.
As a negative control, there was no detectable binding to the parental (non-CD40 expressing) CHOK1 cell line.

Assay [2] deals with T2, CSF1R-Fc (commercially available, single-sided control protein) (UniProt P07333 20-512, limits assumed).
T2 construct: Recombinant control protein; not shown: Fc part of the bought protein; not described
T2 sequence (P07333 20-512 limits assumed): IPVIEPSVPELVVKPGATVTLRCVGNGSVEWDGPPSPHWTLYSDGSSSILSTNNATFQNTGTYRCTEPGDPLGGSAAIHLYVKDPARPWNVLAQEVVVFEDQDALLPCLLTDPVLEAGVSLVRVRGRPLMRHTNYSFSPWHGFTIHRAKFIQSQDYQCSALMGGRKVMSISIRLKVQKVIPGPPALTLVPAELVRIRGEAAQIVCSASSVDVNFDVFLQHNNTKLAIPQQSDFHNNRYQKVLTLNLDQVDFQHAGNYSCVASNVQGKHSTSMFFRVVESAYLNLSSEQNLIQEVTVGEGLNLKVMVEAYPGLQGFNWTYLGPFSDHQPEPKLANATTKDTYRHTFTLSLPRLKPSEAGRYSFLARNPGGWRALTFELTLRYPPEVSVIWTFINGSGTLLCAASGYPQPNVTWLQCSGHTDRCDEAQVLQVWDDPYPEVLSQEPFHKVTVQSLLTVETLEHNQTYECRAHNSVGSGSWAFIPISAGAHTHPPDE
The assay is described as follows: SPR, BioRad ProteOn XPR 360. The protocol:
The binding affinity of the different domains of the hCSF1R-Fc-CD40L chimeric protein was measured by the surface plasmon resonance (SPR) using the BioRad ProteOn XPR 360 system. Specifically, the affinity of the chimeric protein for human CSF1 and CD40 was determined and compared to recombinant control proteins, and the results are shown in the Table below: […]
(Surface plasmon resonance follows binding to a sensor surface in real time, without labels.)

For a further assay, the target named is T3, CD40-His (human, UniProt P25942 21-193).
T3 construct: Octet (biolayer interferometry) reagent; also called recombinant human CD40; not shown: His tag
T3 sequence (P25942 21-193 limits assumed): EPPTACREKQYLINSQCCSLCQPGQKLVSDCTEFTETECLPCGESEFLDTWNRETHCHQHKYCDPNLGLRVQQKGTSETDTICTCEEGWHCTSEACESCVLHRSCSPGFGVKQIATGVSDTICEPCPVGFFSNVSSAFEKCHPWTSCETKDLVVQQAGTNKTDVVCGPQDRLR
Nature of the assay: bio-layer interferometry (Octet); ligand column: hCD40-his. A general note: Biolayer interferometry detects binding as a change in optical thickness at a sensor tip.

B1: murine CSF1R-Fc-CD40L chimeric protein (Fc fusion)
chain (part 1 of 2): APVIEPSGPELVVEPGETVTLRCVSNGSVEWDGPISPYWTLDPESPGSTLTTRNATFKNTGTYRCTELEDPMAGSTTIHLYVKDPAHSWNLLAQEVTVVEGQEAVLPCLITDPALKDSVSLMREGGRQVLRKTVYFFSPWRGFIIRKAKVLDSNTYVCKTMVNGRESTSTGIWLKVNRVHPEPPQIKLEPSKLVRIRGEAAQIVCSATNAEVGFNVILKRGDTKLEIPLNSDFQDNYYKKVRALSLNAVDFQDAGIYSCVASNDVGTRTATMNFQVVESAYLNLTSEQSLLQEVSVGDSLILTVHADAYPSIQHYNWTYLGPFFEDQRKLEFITQRAIYRYTFKLFLNRVKASEAGQYFLMAQNKAGWNNLTFELTLRYPPEVSVTWMPVNGSDVLFCDVSGYPQPSVTWMECRGHTDRCDEAQALQVWNDTHPEVLSQKPFDKVIIQSQLPIGTLKHNMTYFCKTHNSVGNSSQYFRAVSLGQSKQLPDESLFTP
chain (part 2 of 2): HRRLDKVEEEVNLHEDFVFIKKLKRCNKGEGSLSLLNCEEMRRQFEDLVKDITLNKEEKKENSFEMQRGDEDPQIAAHVVSEANSNAASVLQWAKKGYYTMKSNLVMLENGKQLTVKREGLYYVYTQVTFCSNREPSSQRPFIVGLWLKPSSGSERILLKAANTHSSSQLCEQQSVHLGGVFELQAGASVFVNVTEASQVIHRVGFSSFGLLKL
notes: 'constructed as described above in the Detailed Description and in U.S. 62/464,002'; also called mCSF1R-Fc-CD40L; mCD115-Fc-CD40L; not shown: Fc linker
B1: in assay [1], the midpoint of the response, the EC50, lay at 91.1 nM.

B2: recombinant human CSF1 protein (ligand, UniProt P09603 33-190, looked up)
chain: EEVSEYCSHMIGSGHLQSLQRLIDSQMETSCQITFEFVDQEQLKDPVCYLKKAFLLVQDIMEDTMRFRDNTPNAIAIVQLQELSLRLKSCFTKDYEEHDKACVRTFYETPLQLLEKVKNVFNETKNLLDKDWNIFSKNCNNSFAECSSQDVVTKPDCN
notes: the construct is not described
On to B2, for which, in assay [2], the Kd – broadly, the equilibrium constant for the complex coming apart – turned out to be 0.275 nM; the koff – broadly, the rate constant with which the complex falls apart – worked out at 0.000335 s⁻¹; the kon (as a rule, the second-order rate constant of association) was 1.22e+06 M⁻¹ s⁻¹.

B3: CD40L-Fc (commercially available, single-sided control protein) (Fc fusion, UniProt P29965 113-261, looked up)
chain: MQKGDQNPQIAAHVISEASSKTTSVLQWAEKGYYTMSNNLVTLENGKQLTVKRQGLYYIYAQVTFCSNREASSQAPFIASLCLKSPGRFERILLRAANTHSSAKPCGQQSIHLGGVFELQPGASVFVNVTDPSQVSHGTGFTSFGLLKL
notes: Recombinant control protein; not shown: Fc part of the bought protein
As for B3, the Kd with CD40-His worked out at 2.42 nM.

Values taken from US20190169249A1 (SHATTUCK LABS, published 2019).
